The conditions of data set [1]: 37° C.
Experimental: (§1) A Dionex Ultimate 3000 system coupled to a Berthold radiometric detector was used for RP-HPLC analysis. A ACE 3 C18, 3μ, 100 Å, 150×4.6 mm column, at a flow rate of 1 mL/min and with UV detection at 220 nm, was employed with the following mobile phases, A: 0.1% TFA/water), B Acetonitrile (ACN). Gradient was: 0-2 min 23% B, 2-20 min 23-50% B, 20-23 min 50-100% B, 23-25 min 100-23% B, 25-28 min 23% B. 2.2 Thin Layer Chromatography TLC was performed using a radiochromatogaph (MiniGita, Raytest, Germany). Stationary phase was silica gel (ITLC-SG, Agilent technologies, USA) and different mobile phases were employed. MEK was used to determine the amount of free ^99mTcO4^− (Rf=1), Anticoagulant Citrate Dextrose Solution (ACD-A, Baxter International, USA) to determine non-peptide-bound ^99mTc-coligands and ^99mTcO4^− (Rf=1), 60% ACN for ^99mTc-colloid (Rf=0). […] In Vitro Stability Study Stability of ^99mTc complexes was assessed in fresh human plasma at 37° C. after 0 min, 30 min, 1 hour, 2 hours and 4 hours of incubation at a concentration of 100 μmol/mL. […] Supernatants were collected and filtered (Millex-GV 0.22 μm PVDF, Merck Millipore, Germany) then assessed by radio-HPLC. […] After one hour, rat was sacrificed and urine was directly collected from the bladder using a syringe and analyzed by radio-HPLC after a 0.22 μm filtration (Millex-GV 0.22 μm PVDF, Merck Millipore, Germany). […]
Data set [2] has as its system abdominal aorta aneurysm (AAA) rat model of vascular inflammation. Description: SPECT/CT imaging in abdominal aorta aneurysm (AAA) model. In kind it is in vivo. The following applies: for Pattern of biodistribution / blood clearance route (in words): AAA rat, 74 MBq i.v., SPECT/CT. The text has this: Rat model of vascular inflammation that has been set up at the laboratory: the experimental abdominal aorta aneurysm (AAA) induced by local infusion of elastase and followed by intravenous injection of a periodontal bacterium present in human AAA (Porphyromonas gingivalis) and known to induce AAA inflammation (Delbosc et al., 2011, PLoS ONE 6(4): e18679. doi:10.1371/journal.pone.0018679).
Immediately after intravenous injection via the penis vein of 74 MBq of radiolabelled HYNIC-P8RI (obtained using Tricine/EDDA), sequential whole-body acquisitions (every 10 minutes for the first hour) were performed with a hybrid SPECT/CT camera (NanoSPECT/CT, Bioscan Inc.) dedicated to small animals. 10. […] Results 1. Radiolabeling 6-Hydrazinopyridine-3-carboxylic acid (HYNIC) was coupled to the N-terminal amino-acid of the P8RI peptide via a 3(PEG) spacer to obtain HYNIC-P8RI. HYNIC-P8RI was then labeled at high specific activities (>71 GBq/μmol) using tricine, EDDA or Tricine/EDDA as coligands. The tricine/EDDA exchange labeling strategy was chosen because of high labeling yield and resulting in a single major specie as analyzed by HPLC (see FIG. 1).

Data set [3] relates to plasma proteins. Description: in vitro. The note with it: human, fresh human plasma.
Experimental: as §1
The conditions of data set [4]: male wistar rat, 74 MBq, urine from bladder 1 hour after injection; listed as [99mTc]EDDA/HYNIC-P8RI.
Experimental: as §1

“Also recorded” adds a separate entry of the source. Where a SMILES comes first, the peptide text is derived from it. [ ]: non-standard residue; d: D form. The star is where a group is joined. ξ: configuration not given here. HYNIC = NNc1ccc(C(=O)*)cn1; PEG3 = NCCOCCOCCOCCC(=O)O; ξK = NCCCCC(N)C(=O)O

`CC(C)C[C@@H](NC(=O)[C@@H](C)NC(=O)[C@H]1CCCN1C(=O)[C@@H](Cc1c[nH]c2ccccc12)NC(=O)C(CCCCN)NC(=O)CCOCCOCCOCCNC(=O)c1ccc(NN)nc1)C(=O)N[C@H](Cc1ccccc1)C(=O)N[C@@H](C(=O)N[C@H](CCCNC(=N)N)C(=O)O)C(C)C` (stereo partly drawn) [99mTc-HYNIC-P8RI, metal not drawn] ({HYNIC-PEG3}-[ξK][dW][dP][dA][dL][dF][dV][dR]-OH): the “RCP (radiochemical purity) after incubation in human plasma” value in data set [1] (4 h of incubation, tricine/EDDA coligands) is above 89%. Moreover, the “In vitro stability in human plasma (in words)” value in data set [1] (up to 4 h, radio-HPLC, listed as [99mTc]EDDA/HYNIC-P8RI) is on record as “no significant release of degraded radiolabelled peptide”. Besides, the “Pattern of biodistribution / blood clearance route (in words)” value is “almost exclusive renal uptake and excretion” in data set [2]; “tracer elimination via kidneys; also recorded: almost exclusively renal” in data set [2] (listed as [99mTc]EDDA/HYNIC-P8RI). Also, the “Blood clearance rate (in words)” value in data set [2] (in vivo, rat) is recorded as “rapid blood clearance”. In data set [2] (rat, i.v. injection), the “Time of peak activity in kidneys and bladder after injection” value amounted to 1 h. In data set [3], this compound yielded a fraction unbound at 4 h above 0.95. Besides, the “In vivo stability: species excreted in rat urine by radio-HPLC (in words)” value in data set [4] is listed as “unaltered form of the peptide”.

The values above are taken from patent US11098124B2, “CD31 shed as a molecular target for imaging of inflammation” (INSTITUT NATIONAL DE LA SANTE ET DE LA RECHERCHE MEDICALE …, priority 2016, dated 2021).
